# Results reported in the DeepSol protein solubility set.
# Test: soluble on expression in E. coli; label from the status in PepcDB or PDB records
row,Sequence,soluble on expression in E. coli
1,MGSDKIHHHHHHMSHITDIAYKNWIVELKSKIRSSQVKASLAINAALIEFYWDLGKMIAEKQTAWGTKFIEQVSHDLQVEFPEMKGLSTTNLKYCRSFYLFYQNAIGQQAVAQLPVTPNVQQGVGEISQQSVDQLQHIEKQVNVFGQQFVAQIPWGHNILIFTKSKSYTEAQFYLQQTISNAWGRETLALQIKSQLFERQGKAITNFKQTLPEPLSDLAQQTLKDPYNFDFVNMAGTMKEKDLEKQLITHISKFLLELGKGFAFVGQQYHLEIAENDYYLDLLFYHIKLKCYVVIELKNTKFVPEYTGKMNFYLSAVDTLLKQDDDKPTIGILLCRDKNNIEAEFALRDINKPIGISEFSFTEILPENLKSSLPTVEELENELQHLTNDTDEN,not soluble
2,MGSDKIHHHHHHMSHRFFYRILGMRYLTSTNRKGYARMLFHRFSEKEWNFLKNDENNECFSCLMFYSRTGNAGRLEEEITDMKVDILSREYPPKVYGGAGVHAEELSKVLAERVDVTVRAFDGPRTAADIPAIPGTDPKGSLTVVGYDVPKELEDANGALKTFGVDLQIANDVDADIIHAHTWYACLAGYLAKMLHDTPLVITAHSLEPFRPWKREQLGGGYNLSSWAEKDAYEHADRVIAVSAGMREDILTAYPNLDPDKVVVVHNGITMSQFETPADDDPGWKVFERYNIDRSKPTLLFVGRITRQKGLPYLLQALHFVDPNIQVVLCAGAPDTPEIMEEVKTAFAKLDEERGNIIWIEEMLPKPELNALEHGCDAFICPSIYEPLGIVNLEAMACGLPVVASATGGIPEVVVDGETGYLVPVDQLHDGTGTPTNPDKFVHDMADAINRIMADPEKAKRMGQAGYERARDHFSWESIADKTVKVYEDVLAERK,not soluble
3,MGSDKIHHHHHHMSIEFSRWPNNYMMSYQVTKALGLASLGATDVTEIYEACKKIDPNDKETWHREWLITAETLERHGKEAEAVGNWYTARNCYIRACNYNRIAEYTVMDDDNEKIRIFRKVNELFEAAGKYFDVKPEKIQVDYEDVKLDGYFFSPSWIKGPKPTILALNGGDEWSIENYFWLGPAFISCGYNFMVYDQPGTGLSMYEKGKGRRADSEAFHSRAIDFLLTRPEVDPNKIIVHGESFAAYDSLRFASFDHRIAAVISDGGTHAFDWEAMLKWMPPSLAGHGMRILGAKSLDDFAENPRFAYNLEGVLHQIECPLLVMHGAEEILVQPNPLTQALKNYEQAGSKNKTFFPIEDRRIGGLEHCQVDNINVLHEVVLNWLCSIGLGPFAPRPSDC,not soluble
4,MGSDKIHHHHHHMSIGIVIASHGEFAAGIKQSGSMIFGEQEKVQVVTFMPSEGPTDLHAKIEAAIATFDAEDEVLVLADLWSGSPFNQASAVMGENPERKIAIITGLNLPMLIQAYTERMMDASAGVDKVVANIMKEAKGGIKVLPEELQPAEETAVAAAPAAVQGAIPEGTVIGDGKIKINLARIDSRLLHGQVATAWTPDSRANRIIVVSDTVSKDELRKKLIEQAAPTGVKANVIPIKKMIEVAKDPRFGDTKALLLFETPQDALATIEGGVPIETLNVGSMAHSTGKTMLNKVLSMDKDDVATFEKLRDLGVKFDVRKVPADSKSDLFGLINKADVQ,not soluble
5,MGSDKIHHHHHHMSILTDSNETSHLPDSCSSTLGKQNFHNSLFSVPEAFEFSLVVVNDLVFAKRGKYLTDAELVVMRGALNNLDYEEIAHNSNYTVNYLQRCVAPLLWDTLSETIGNGDRVGKKKLRQILEELNQKYHIQSPFEPYLTLSSSDNSSLIIRGQLPEISNFYGRIHELNLLKELIFKHRCITLVGVAGVGKSSLATKLIVELSKKPRRQFDALIWKSLSHIPSLPELTHELIALIQPSLIPELPLSSSTHNLISILIQQLQSCPCLLVLDGFEALFQRSNFTERLEYSIFLNRLIDEASPSCLLLTTRILPDELNILIKNNPSTIKVFKVNGLDIDAATQLLSDLGLQQEENYQSLINTYWGNPLELKNVVSRIERFFSGSTLKFLENKTTLISLQLQTMLNEMFGQVLSDLQRRIMICITEDLVLTSQPISFAKLLTRLRQLPNLPVSTSELITDLEKLERLSLIESGKDNTTKEITFTLQPVVKKYINTDPAGLVHPSEQFTPYSTTTQKNTHAH,not soluble
6,MGSDKIHHHHHHMSIRTRSRKSTPKQPESALRRWLKERHITEVECLVPDITGNARGKIIPADKFSHDYGTRLPEGIFATTVTGDFPDDYYALTSPSDSDMHLRPDASTVRMVPWAADPTAQVIHDCYTKDGQPHELAPRNVLRRVLEAYAEVKLQPVVAPELEFFLVQKNTDPDFPLLPPAGRSGRPETARQSYSIDAVNEFDPILDLMYDYCDAMELDVDTLIHESGAAQLEVNFTHADALSRADQVFLFKRTMREAALRHGVYATFLAKPMETEPGSAMHIHQSLLHAGTGKNVFSGKREGGFSDTFAHYLGGLQKYIPMAMGLLAPNVNSYRRLMFGEVSPSNVLWGFDNRTCGLRVPIDAPQNMRVESRFAGSDANPYLAMAATLACGLLGIREKLEPTAPISSNGKEQGYDLPRSLGEALDELEGCEALKEMLGPRFVRAYISVKRKEYETFFRVISSWEREFLLLNV,not soluble
7,MGSDKIHHHHHHMSIVLKAIRFHRETDLFTDLNFEFPTGALTVLTGDSGSGKSTLLSLIAGYAAMPYEGTILLNGHDDRNAAMQVKAQHVGMMFQNPDQQFTMRTLSGELSFALENLNLPVAEIQRRFAQAVALGETQALLDRDLSTLSGGEKQRAALTVLLAMDAPILLLDEPFASIDPTSRHLLIGKLGTLRDHGKTIVIAEHDLTDYADVADQLVALKNGELSRLPLATLTTLPTHFNLTQPRQATNKIFHLENVVCQQNHHILLQAPSWDFNDGITTLTGANGSGKSTLLRSMVQRHPYQGRMFLGQQRLRRRKRLYQTMTLAVQDAAKQFVTLTLADELAFGPALPAAVREKQQAALAYLGLAEKQTTSLYQLSEGQKKMVQLMTMLSLDLSFLLLDEPFSGLDDRACQYFAAWIKAKSATQAFLIVTHRLAPLAGISQQQVLLANHRLQVVQG,not soluble
8,MGSDKIHHHHHHMSKPAYLVEADGVNITKQIADRLLSLTVVDEAEQLSDRVEIVLDDRDKLLEIPKSGTWLKVYLGYAEGGKLPVYMGTYAVDDLTLSNGPRSMVVRATALETAPAMKDSRTQSWHDTTLGEIARTIASRSGLELRIVGDVGSIPIKHEDQTAESDIAFLTRLARRLKITAKPIDKALWITRRASDIPATPGVELAQRIVKGDEVSDWRATIKNRGAYSRVKARYFDQDEKKEKLLTVGPEDGNLQTFEEKQLYKTRDEAQRAADSRLQSLQSGEVTIDFSMEGDPEFTAEGQVTLQDFRALVDGTWYIRNVTHKFDGNGYRTTVTCGTKGEANNDWSAGRGENDKRSASEKGSLLCKTAQQLRGFSTQGGPDGGRNACVWAVNRVFQKAGLTTPWGGSNYVPDAEAALRRSGAQQVSGPEPGAIAIFTDGGNPPQAHIGIVTCDGGRVISNSSSRPTRTRLASPSEYQGFYSGPIRYYRLK,not soluble
9,MGSDKIHHHHHHMSKPGAELEEVFSSVQGEGMLIGLRQVFIRFRGCNLTCDYCDTPAGTPAEPCRIEQTPGRRDFVPADNPVSLDRVAALVEGWQRGWPGVHDSISITGGEPLLRHDILMQWLPVLREHLPVYLETNGVMHAALGLVINHVDIIGMDIKIPSTSGCTDLWDDHRQFLEIANTRRAFIKIVVGEETEDWEITRASEIIAGVNRDIPLILQPVTRAGDTLGIKPVKALELQELACRYLAEVRIIPQTHRFMGQL,not soluble
10,MGSDKIHHHHHHMSKSLFPFRFLLPVPVDHYENFPVASWLLPGRLREPVSAIYRFARSADDLADEGDAPPRARLQELARYHSELDRIERGEIPDDPIFGRLAAAIRAHALPLTPFRDLLSAFAQDIEKTRYASFGEVMDYCRRSANPVGRLMLHLYGDHDPRHQAYSDAICSSLQLINFLQDVAIDYAKGRIYLPQDELAAHHVSEAQIAAGDAGGLWRMMMHKQIERARKLLQAGAPLGRALDGRIGLELRVTIRGGETILRKLHADPGCVFGARPVLGKRDWIVMLARSVL,not soluble
11,MGSDKIHHHHHHMSLCLFCDQPFTGDLDMRRLLLPGKSKTSCLCPSCRQLFAQIGTAFCPQCGRQQDSGEICQDCQKWRRIYQGNFLHNQAVYCYNQAFHDLMVRYKRYGDYLLCQVLQELAAPAVQKLAADYYVPVPTSPEHRKKRGYDTVWEIFTPLLPLTPLLAKKAGAGAQGEKDKKARMQAKQNFFLNPEFRGTITGKIILLDDIYTTGRTLYHARDAIEKAFPKCQVESFSISR,not soluble
